Results reported in article PMC3737549.

Target: RORγ-mCherry (UniProt P51450)
Sequence of UniProt P51450 (P51450 whole entry): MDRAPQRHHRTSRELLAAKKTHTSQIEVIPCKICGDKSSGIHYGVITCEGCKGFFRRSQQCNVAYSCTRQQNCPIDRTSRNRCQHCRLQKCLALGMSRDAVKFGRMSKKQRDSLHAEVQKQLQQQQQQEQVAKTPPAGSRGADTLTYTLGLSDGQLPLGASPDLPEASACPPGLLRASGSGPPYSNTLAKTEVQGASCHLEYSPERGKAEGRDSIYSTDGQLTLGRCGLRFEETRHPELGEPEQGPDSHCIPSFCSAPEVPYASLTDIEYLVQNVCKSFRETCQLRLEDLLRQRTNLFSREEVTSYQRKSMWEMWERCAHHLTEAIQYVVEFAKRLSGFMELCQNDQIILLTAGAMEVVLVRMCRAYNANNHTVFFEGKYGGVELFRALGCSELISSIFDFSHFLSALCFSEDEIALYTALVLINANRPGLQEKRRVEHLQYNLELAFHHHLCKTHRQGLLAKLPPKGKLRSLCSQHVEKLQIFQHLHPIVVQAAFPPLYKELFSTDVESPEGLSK

nuclear localisation of PΔN106 in COS-1 cells: percent of cells with the mutant principally in the nucleus on co-expression with RORγ (50% when expressed alone) (% of the cells)	nuclear localisation of PΔC636 in COS-1 cells: percent of cells with the mutant predominantly in the nucleus on co-expression with RORγ (6% when expressed alone) (% of the cells)	Binder
90		Myc-Prox1 PΔN106 (domain or fragment) TEPSFQASGLSSTGSEVHQEDICSNSSRDSPPECLSPFGRPTMSQFDVDRLCDEHLRAKRARVENIIRGMSHSPSVALRGNENEREMAPQSVSPRESYRENKRKQKLPQQQQQSFQQLVSARKEQKREERRQLKQQLEDMQKQLRQLQEKFYQVYDSTDSENDEDGDLSEDSMRSEILDARAQDSVGRSDNEMCELDPGQFIDRARALIREQEMAENKPKREGSNKERDHGPNSLQPEGKHLAETLKQELNTAMSQVVDTVVKVFSAKPSRQVPQVFPPLQIPQARFAVNGENHNFHTANQRLQCFGDVIIPNPLDTFGSVQMPSSTDQTEALPLVVRKNSSEQSASGPATGGHHQPLHQSPLSATAGFTTPSFRHPFPLPLMAYPFQSPLGAPSGSFSGKDRASPESLDLTRDTTSLRTKMSSHHLSHHPCSPAHPPSTAEGLSLSLIKSECGDLQDMSDISPYSGSAMQEGLSPNHLKKAKLMFFYTRYPSSNMLKTYFSDVKFNRCITSQLIKWFSNFREFYYIQMEKYARQAINDGVTSTEELSITRDCELYRALNMHYNKANDFEVPERFLEVAQITLREFFNAIIAGKDVDPSWKKAIYKVICKLDSEVPEIFKSPNCLQELLHE
	80	Myc-Prox1 PΔC636 (domain or fragment) MPDHDSTALLSRQTKRRRVDIGVKRTVGTASAFFAKARATFFSAMNPQGSEQDVEYSVVQHADGEKSNVLRKLLKRANSYEDAMMPFPGATIISQLLKNNMNKNGGTEPSFQASGLSSTGSEVHQEDICSNSSRDSPPECLSPFGRPTMSQFDVDRLCDEHLRAKRARVENIIRGMSHSPSVALRGNENEREMAPQSVSPRESYRENKRKQKLPQQQQQSFQQLVSARKEQKREERRQLKQQLEDMQKQLRQLQEKFYQVYDSTDSENDEDGDLSEDSMRSEILDARAQDSVGRSDNEMCELDPGQFIDRARALIREQEMAENKPKREGSNKERDHGPNSLQPEGKHLAETLKQELNTAMSQVVDTVVKVFSAKPSRQVPQVFPPLQIPQARFAVNGENHNFHTANQRLQCFGDVIIPNPLDTFGSVQMPSSTDQTEALPLVVRKNSSEQSASGPATGGHHQPLHQSPLSATAGFTTPSFRHPFPLPLMAYPFQSPLGAPSGSFSGKDRASPESLDLTRDTTSLRTKMSSHHLSHHPCSPAHPPSTAEGLSLSLIKSECGDLQDMSDISPYSGSAMQEGLSPNHLKKAKLMFFYTRYPSSNMLKTYFSDVKFNRCITSQLIKWFSNFREFYYIQME
